± gives the standard error. For some of these results: Fewer inactive variants are shown than the library holds.
B1: glmS ribozyme (parent)
chain: AUAAAAGCGCCAGAACUACAGAAAUGUAGUUGACGAGGAGGAGGUUUAUCGAAUUUUCGGCGGAUGCCUCCAAA

Columns and labels:
Conditions in all cases: with glucosamine-6-phosphate
glucosamine-6-phosphate [1] = variants of: B1; assay: kcat; higher = faster cleavage; RNA array
Outline: (§1)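 Using a hybridised Cy3 probe at 37 °C, barcoded ribozyme variants transcribed in situ by E. coli RNA polymerase on sequenced MiSeq chips were monitored across tiles imaged over ~14 h. The flow contained glucosamine-6-phosphate from 40 μM to 10 mM in HEPES/KCl/Mg(OAc)2 buffer. Signals were normalised to baseline and to non-cleaving reference variants before per-tile medians were fit to one- or two-exponential decays to yield kobs. Weighted Michaelis–Menten fits across concentrations gave kcat and KM.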

glucosamine-6-phosphate [2] = variants of: B1; assay: KM; higher = weaker cofactor use; RNA array
Outline: as §1

glucosamine-6-phosphate [3] = variants of: B1; assay: self-cleavage kobs at 40 uM GlcN6P; higher = faster cleavage; RNA array
Outline: as §1

glucosamine-6-phosphate [4] = variants of: B1; assay: self-cleavage kobs at 160 uM GlcN6P; higher = faster cleavage; RNA array
Outline: as §1

glucosamine-6-phosphate [5] = variants of: B1; assay: self-cleavage kobs at 640 uM GlcN6P; higher = faster cleavage; RNA array
Outline: as §1

glucosamine-6-phosphate [6] = variants of: B1; assay: self-cleavage kobs at 2500 uM GlcN6P; higher = faster cleavage; RNA array
Outline: as §1

glucosamine-6-phosphate [7] = variants of: B1; assay: self-cleavage kobs at 10000 uM GlcN6P; higher = faster cleavage; RNA array
Outline: as §1

Row | Variant | kcat (glucosamine-6-phosphate [1]) | KM (glucosamine-6-phosphate [2]) | self-cleavage kobs at 40 uM GlcN6P (glucosamine-6-phosphate [3]) | self-cleavage kobs at 160 uM GlcN6P (glucosamine-6-phosphate [4]) | self-cleavage kobs at 640 uM GlcN6P (glucosamine-6-phosphate [5]) | self-cleavage kobs at 2500 uM GlcN6P (glucosamine-6-phosphate [6]) | self-cleavage kobs at 10000 uM GlcN6P (glucosamine-6-phosphate [7])
1 | AUAAAAGCGCCAGCACUACAGAAAUGUAGUUGACGAGGAGGAGGUGUAUCGAAUUUUCGGCGGAUGCCUCCAAA | 0.000823 ± 0.00019 s⁻¹ | 1630 ± 660 µM | 4.79e-05 ± 1.2e-05 s⁻¹ | 8.78e-05 ± 1.5e-05 s⁻¹ | 0.000209 ± 2.4e-05 s⁻¹ | 0.000478 ± 4.8e-05 s⁻¹ | 0.000795 ± 0.0001 s⁻¹
2 | AUAAAAGCGCCAGAAAUACAGAAAUGUAGGUGACGAGGAGGAGGUUUAUCGAAUUUUCGGCGGAUGCCUCCAAA | 0.000341 ± 4.6e-05 s⁻¹ | 2530 ± 560 µM |  |  | 6.82e-05 ± 1.2e-05 s⁻¹ | 0.000175 ± 2.3e-05 s⁻¹ | 0.000243 ± 9.7e-05 s⁻¹
3 | AUAAAAGCGACAGAACUACAGAAAUGUAGUUGACGAGGAGGAGGUUUAUCGAAUUUUCGGCGGAUGCAUCCAAA | 1.98e-05 ± 3.8e-06 s⁻¹ |  |  |  |  |  | 
4 | AUAAAAGCGCCAGAACUACAGAAAUGUAGUUGACGAGGAGGAGGUUUAUCGAGUAUUCGGCGGAUGCCUCCAAA | 0.0853 ± 0.029 s⁻¹ | 3480 ± 1400 µM | 0.00112 ± 0.00013 s⁻¹ | 0.00332 ± 0.00069 s⁻¹ | 0.0112 ± 0.002 s⁻¹ | 0.0611 ± 0.023 s⁻¹ | 0.065 ± 0.014 s⁻¹
5 | AUAAAAGCGCCAAAGCUACAGAAAUGUAGUUGACGAGGAGGAGGUUUAUCGAAUUUUCGGCGGAUGCCUCCAAA | 0.000875 ± 0.00018 s⁻¹ | 1840 ± 670 µM |  | 6.23e-05 ± 1.3e-05 s⁻¹ | 0.000327 ± 5.6e-05 s⁻¹ | 0.000431 ± 7.3e-05 s⁻¹ | 0.000784 ± 0.00011 s⁻¹
6 | AUAAAAGCGCCAGAACUACAGAAAUGUAGUUGACGAGGAGUAGGUUUAUCGAAGUUUCGGCGGAUGCCUCCAAA | 0.000782 ± 0.00031 s⁻¹ |  | 0.000133 ± 1.6e-05 s⁻¹ | 0.000463 ± 0.00012 s⁻¹ | 0.000458 ± 9.3e-05 s⁻¹ | 0.00134 ± 0.00026 s⁻¹ | 
7 | AUAAAAGCGCCAGAACUACAGAAAUGUAGUUGACGAGGAGGAGGUUUCUCGAAUUCUCGGCGGAUGCCUCCAAA | 5.47e-05 ± 1.8e-06 s⁻¹ | 357 ± 160 µM |  |  | < 1e-05 s⁻¹ | 4.83e-05 ± 1.6e-05 s⁻¹ | 5.27e-05 ± 1.2e-05 s⁻¹
8 | AUAAAAGCGCCAGAACUACAGAAAUGUAGUUUACGAGGAGGAGGUUUAUCGAAUUUUCGGCGGAUGCGUCCAAA | 1.3e-05 ± 1.3e-06 s⁻¹ |  |  |  |  |  | 

— the supplement of paper PMC7125110
